The values that follow come from publication PMC6823450.

Assay [1] deals with HIV-1 matrix protein p17 (wild type) (HIV-1) (UniProt P03347). The assay is described as follows: cross-linking; p17 (2 μg/ml in 20 μl) 2 h at 37 °C in PBS alone or with heparin, then 1 mM BS3 for 2 h at 37 °C; SDS-PAGE and Western blot with anti-p17; bands of 17, 34, 51 and 68 kDa quantified. Background: In western blotting, separated proteins are transferred to a membrane and probed.

The target is the same in assay [2]. The assay is described as follows: SPR; p17 immobilised on a CM5 sensorchip by amine coupling (2,500 RU); free p17 (15.7-2000 nM) injected in HBS-EP (10 mM HEPES pH 7.4, 150 mM NaCl, 3 mM EDTA, 0.005% P20) for 2 min; BIAcore X 100; Kd from equilibrium RU (saturation curve, Scatchard) with two softwares; cannot tell dimer, trimer or higher oligomers apart.

“And” between values parts separate entries of the source, which are not always exact repeats. Equal values may be shown once.

The stoichiometry N is a count of units in the complex or per binding partner. By Kd is commonly meant the equilibrium constant for the complex coming apart. Low readings indicate higher affinity, high ones lower affinity.

Turning to “HIV-1 matrix protein p17 (wild type) (from UniProt P03347 1-132) (natural protein)”, in assay [1], the % of total protein as dimer amounted to 29%, the % of total protein as tetramer was 3%, the % of total protein as trimer is 12% and the % of total protein remaining monomer is 59%. Further, in assay [1], the fold increase of dimer with heparin against no heparin is 2 fold; the fold increase of tetramer with heparin against no heparin came out at 3.4 fold; the fold increase of trimer with heparin against no heparin amounted to 4.2 fold; the stoichiometry N is 2 and 3 and 4. For the same substance, the Kd in assay [2] is 529 nM and 665 nM.
